Where a chain is given by its changes, count along the chain named. Read-outs that look alike come from different tables or passages of the source.
What was measured:
Experiment in all cases: cell-based or functional assay
[1] = molecular target: T1, IGF-1R (receptor for insulin-like growth factor 1), endogenous on human tumor cell lines (human, UniProt P08069 31-1367)
[2] = molecular target: T1, IGF-1R (receptor for insulin-like …); remark: listed apart in the source
[3] = molecular target: T1, IGF-1R (receptor for insulin-like …); remark: listed apart in the source
[4] = molecular target: T1, IGF-1R (receptor for insulin-like …); remark: listed apart in the source
[5] = molecular target: T1, IGF-1R (receptor for insulin-like …); remark: listed apart in the source
[6] = molecular target: T1, IGF-1R (receptor for insulin-like …); remark: listed apart in the source
[7] = molecular target: T1, IGF-1R (receptor for insulin-like …); remark: listed apart in the source
[8] = molecular target: T2, ErbB3 (HER3), endogenous on human tumor cell lines (human, UniProt P21860 20-1342)
[9] = molecular target: T2, ErbB3 (HER3), endogenous on human tumor …; remark: listed apart in the source
[10] = molecular target: T2, ErbB3 (HER3), endogenous on human tumor …; remark: listed apart in the source

T2 sequence (P21860 20-1342 limits assumed): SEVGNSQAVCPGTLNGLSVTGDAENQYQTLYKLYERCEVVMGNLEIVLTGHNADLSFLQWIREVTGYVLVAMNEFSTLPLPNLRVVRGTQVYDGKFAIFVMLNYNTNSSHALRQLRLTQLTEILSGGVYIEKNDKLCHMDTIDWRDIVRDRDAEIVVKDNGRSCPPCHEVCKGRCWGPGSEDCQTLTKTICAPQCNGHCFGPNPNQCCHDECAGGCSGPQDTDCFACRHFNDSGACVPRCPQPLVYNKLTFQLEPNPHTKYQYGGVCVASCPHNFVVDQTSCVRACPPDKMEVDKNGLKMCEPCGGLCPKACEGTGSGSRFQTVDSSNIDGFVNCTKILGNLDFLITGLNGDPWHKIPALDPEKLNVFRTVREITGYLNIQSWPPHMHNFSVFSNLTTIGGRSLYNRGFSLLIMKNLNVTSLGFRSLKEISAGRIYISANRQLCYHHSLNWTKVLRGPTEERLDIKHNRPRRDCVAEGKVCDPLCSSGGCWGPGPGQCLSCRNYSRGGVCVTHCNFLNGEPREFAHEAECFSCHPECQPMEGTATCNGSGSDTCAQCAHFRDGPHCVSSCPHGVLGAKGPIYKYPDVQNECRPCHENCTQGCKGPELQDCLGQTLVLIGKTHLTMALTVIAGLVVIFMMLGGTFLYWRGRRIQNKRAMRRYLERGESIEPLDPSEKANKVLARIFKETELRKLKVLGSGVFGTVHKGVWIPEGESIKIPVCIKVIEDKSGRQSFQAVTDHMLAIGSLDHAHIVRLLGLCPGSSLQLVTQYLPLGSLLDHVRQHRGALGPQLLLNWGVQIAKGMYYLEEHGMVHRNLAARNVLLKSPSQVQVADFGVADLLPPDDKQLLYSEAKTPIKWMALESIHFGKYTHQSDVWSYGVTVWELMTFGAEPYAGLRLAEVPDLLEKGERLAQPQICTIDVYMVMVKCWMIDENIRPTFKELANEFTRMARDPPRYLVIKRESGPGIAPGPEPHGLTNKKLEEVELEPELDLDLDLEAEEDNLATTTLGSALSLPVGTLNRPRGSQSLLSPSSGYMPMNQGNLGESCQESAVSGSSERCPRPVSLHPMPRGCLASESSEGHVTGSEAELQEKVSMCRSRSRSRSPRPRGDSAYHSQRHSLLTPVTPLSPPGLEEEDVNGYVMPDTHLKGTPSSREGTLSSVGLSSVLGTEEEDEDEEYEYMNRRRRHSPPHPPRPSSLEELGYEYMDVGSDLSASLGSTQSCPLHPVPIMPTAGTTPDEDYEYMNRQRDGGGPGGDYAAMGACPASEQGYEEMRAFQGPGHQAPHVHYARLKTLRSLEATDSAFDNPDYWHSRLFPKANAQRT
T1 sequence (P08069 31-1367): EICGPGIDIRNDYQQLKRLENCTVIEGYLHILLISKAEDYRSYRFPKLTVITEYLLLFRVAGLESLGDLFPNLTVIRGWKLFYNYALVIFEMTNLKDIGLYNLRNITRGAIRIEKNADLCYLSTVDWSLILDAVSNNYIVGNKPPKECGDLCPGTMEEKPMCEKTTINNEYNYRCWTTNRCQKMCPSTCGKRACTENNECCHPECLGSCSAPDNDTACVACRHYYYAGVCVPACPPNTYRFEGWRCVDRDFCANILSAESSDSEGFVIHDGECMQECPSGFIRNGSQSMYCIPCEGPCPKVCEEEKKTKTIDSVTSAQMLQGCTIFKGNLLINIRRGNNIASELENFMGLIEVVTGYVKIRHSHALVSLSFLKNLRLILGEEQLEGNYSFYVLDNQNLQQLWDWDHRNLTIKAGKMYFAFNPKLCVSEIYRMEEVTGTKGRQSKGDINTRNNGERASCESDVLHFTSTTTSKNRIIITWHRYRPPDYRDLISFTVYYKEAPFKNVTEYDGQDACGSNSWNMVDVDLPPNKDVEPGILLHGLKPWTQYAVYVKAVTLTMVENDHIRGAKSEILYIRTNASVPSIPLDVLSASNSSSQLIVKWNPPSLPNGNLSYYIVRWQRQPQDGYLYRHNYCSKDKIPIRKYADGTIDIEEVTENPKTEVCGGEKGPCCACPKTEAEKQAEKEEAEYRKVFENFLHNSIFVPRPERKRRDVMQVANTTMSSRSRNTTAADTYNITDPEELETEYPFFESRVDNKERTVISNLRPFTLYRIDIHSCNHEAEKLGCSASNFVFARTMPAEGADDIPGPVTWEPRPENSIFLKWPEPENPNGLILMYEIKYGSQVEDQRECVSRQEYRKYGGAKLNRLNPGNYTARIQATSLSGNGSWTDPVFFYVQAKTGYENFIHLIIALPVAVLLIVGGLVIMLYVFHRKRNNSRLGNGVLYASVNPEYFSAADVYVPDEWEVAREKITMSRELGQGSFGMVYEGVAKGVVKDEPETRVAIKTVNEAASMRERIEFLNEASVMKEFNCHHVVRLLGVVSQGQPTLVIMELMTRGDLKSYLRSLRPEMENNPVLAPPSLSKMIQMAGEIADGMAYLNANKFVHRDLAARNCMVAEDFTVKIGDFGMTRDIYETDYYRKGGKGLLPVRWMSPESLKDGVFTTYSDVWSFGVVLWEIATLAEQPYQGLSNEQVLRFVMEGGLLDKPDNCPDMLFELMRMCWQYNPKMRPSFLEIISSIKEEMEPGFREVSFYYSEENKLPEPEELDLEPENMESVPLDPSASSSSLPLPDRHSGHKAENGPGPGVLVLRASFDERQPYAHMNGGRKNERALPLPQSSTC

B1: ANTI-IGF-1R Ab# A (ganitumab) (antibody, V domains shown)
VH: QVQLQESGPGLVKPSGTLSLTCAVSGGSISSSNWWSWVRQPPGKGLEWIGEIYHSGSTNYNPSLKSRVTISVDKSKNQFSLKLSSVTAADTAVYYCARWTGRTDAFDIWGQGTMVTVSS
VL: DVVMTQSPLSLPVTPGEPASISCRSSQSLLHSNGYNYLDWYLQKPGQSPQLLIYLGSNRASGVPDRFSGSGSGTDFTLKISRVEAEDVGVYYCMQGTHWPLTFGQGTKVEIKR
[1]
  pAKT IC50 (BxPC-3): 2.6e-10 M (inferred)
  pIGF-1R IC50 (BxPC-3): 1.5e-10 M (inferred)
[2]
  pAKT IC50 (BxPC-3, IGF1 40 ng/ml): 7.4e-09 M
  pAKT IC50 (BxPC-3, IGF1 400 ng/ml): 9.1e-09 M
  pIGF1R IC50 (BxPC-3, IGF1 40 ng/ml): 7.8e-10 M
  pIGF1R IC50 (BxPC-3, IGF1 400 ng/ml): 2.5e-10 M
[3]
  pAKT IC50 (BxPC-3): 8e-11 M (inferred)
  pIGF1R IC50 (BxPC-3): 1.6e-09 M (inferred)
[4]
  % IGF1R Downregulation (A549, 24 h): 57%
  % IGF1R Downregulation (BxPC-3, 24 h): 51%
[5]
  pAKT IC50 (BxPC-3 50% ErbB3 KD): 1.3e-07 M
  pAKT IC50 (BxPC-3 50% IGF1R KD): 4e-08 M
  pAKT IC50 (BxPC-3 Vector Control): 2.1e-08 M

B2: Anti-IGF-1R Ab# B (cixutumumab) (antibody, V domains shown)
VH: EVQLVQSGAEVKKPGSSVKVSCKASGGTFSSYAISWVRQAPGQGLEWMGGIIPIFGTANYAQKFQGRVTITADKSTSTAYMELSSLRSEDTAVYYCARAPLRFLEWSTQDHYYYYYMDVWGKGTTVTVSS
VL: SSELTQDPAVSVALGQTVRITCQGDSLRSYYATWYQQKPGQAPILVIYGENKRPSGIPDRFSGSSSGNTASLTITGAQAEDEADYYCKSRDGSGQHLVFGGGTKLTVLG
[6]
  pAKT IC50 (BxPC-3): 1.4e-08 M (inferred)
  pAKT IC50 (DU145): 9.8e-09 M (inferred)
  pIGF-1R IC50 (BxPC-3): 2.4e-09 M (inferred)
  pIGF-1R IC50 (DU145): 9.1e-10 M (inferred)

B3: B60-G1-M78 (bispecific antibody, human IgG1, lambda)
heavy: not shown
light: SSELTQDPAVSVALGQTVRITCQGDSLRSYYASWYQQKPGQAPVLVIYGKNNRPSGIPDRFSGSSSGNTASLTITGAQAEDEADYYCNSRDWPGNQWVFGGGTKVTVLGQPKAAPSVTLFPPSSEELQANKATLVCLVSDFYPGAVTVAWKADGSPVKVGVETTKPSKQSNNKYAASSYLSLTPEQWKSHRSYSCRVTHEGSTVEKTVAPAECS
[7]
  pIGF1R % Inhibition (BxPC-3): 86%
  pIGF1R IC50 (BxPC-3): 3.5e-09 M (inferred)
[8]
  pErbB3 % Inhibition (BxPC-3): 115%
  pErbB3 IC50 (BxPC-3): 8e-11 M (inferred)
[3]
  pIGF1R IC50 (BxPC-3): 1.4e-09 M (inferred)
[9]
  pErbB3 IC50 (BxPC-3): 1e-11 M (inferred)

B4: B60-G1-M57 (bispecific antibody, human IgG1, lambda)
heavy: not shown
light: B3 light
[7]
  pIGF1R % Inhibition (BxPC-3): 85%
  pIGF1R IC50 (BxPC-3): 1e-08 M (inferred)
[8]
  pErbB3 % Inhibition (BxPC-3): 162%
  pErbB3 IC50 (BxPC-3): 1.2e-09 M (inferred)
[3]
  pIGF1R IC50 (BxPC-3): 4.4e-09 M (inferred)
[9]
  pErbB3 IC50 (BxPC-3): 2.3e-11 M (inferred)

B5: M27/M7-G1-P4 (bispecific antibody, human IgG1, lambda)
heavy: not shown
light: B3 light with W92T, Q96K, L108I
[7]
  pIGF1R % Inhibition (BxPC-3): 99%
  pIGF1R IC50 (BxPC-3): 1.3e-08 M (inferred)
[8]
  pErbB3 % Inhibition (BxPC-3): 111%
  pErbB3 IC50 (BxPC-3): 4e-11 M (inferred)

B6: B60-G1-P4 (bispecific antibody, human IgG1, lambda)
heavy: not shown
light: B3 light
[7]
  pIGF1R % Inhibition (BxPC-3): 88%
  pIGF1R IC50 (BxPC-3): 4.4e-09 M (inferred)
[8]
  pErbB3 % Inhibition (BxPC-3): 99%
  pErbB3 IC50 (BxPC-3): 4e-11 M (inferred)
[3]
  pIGF1R IC50 (BxPC-3): 2.2e-08 M (inferred)
[9]
  pErbB3 IC50 (BxPC-3): ~2.4e-14 M (inferred)

B7: M7-G1-P4 (bispecific antibody, human IgG1, lambda)
heavy: not shown
light: B3 light with W92T, Q96K, L108I
[7]
  pIGF1R % Inhibition (BxPC-3): 93%
  pIGF1R IC50 (BxPC-3): 2.4e-09 M (inferred)
[8]
  pErbB3 % Inhibition (BxPC-3): 109%
  pErbB3 IC50 (BxPC-3): 2.4e-11 M (inferred)
[3]
  pIGF1R IC50 (BxPC-3): 2.4e-09 M (inferred)
[9]
  pErbB3 IC50 (BxPC-3): 2.4e-11 M (inferred)

B8: M7-G1-M57 (bispecific antibody, human IgG1, lambda)
heavy: not shown
light: B3 light with W92T, Q96K, L108I
[7]
  pIGF1R % Inhibition (BxPC-3): 82%
  pIGF1R IC50 (BxPC-3): 2.1e-08 M (inferred)
[8]
  pErbB3 % Inhibition (BxPC-3): 124%
  pErbB3 IC50 (BxPC-3): 5.2e-11 M (inferred)
[3]
  pIGF1R IC50 (BxPC-3): 2.1e-08 M (inferred)
[9]
  pErbB3 IC50 (BxPC-3): 5.2e-11 M (inferred)

B9: M27/M7-G1-M78 (bispecific antibody, human IgG1, lambda)
heavy: not shown
light: B3 light with W92T, Q96K, L108I
[7]
  pIGF1R % Inhibition (BxPC-3): 91%
  pIGF1R IC50 (BxPC-3): 1e-09 M (inferred)
[8]
  pErbB3 % Inhibition (BxPC-3): 140%
  pErbB3 IC50 (BxPC-3): 1.1e-10 M (inferred)

B10: M27-G1-P4 (bispecific antibody, human IgG1, lambda)
heavy: not shown
light: B3 light with W92T, N95D
[7]
  pIGF1R % Inhibition (BxPC-3): 88%
  pIGF1R IC50 (BxPC-3): 3e-09 M (inferred)
[8]
  pErbB3 % Inhibition (BxPC-3): 106%
  pErbB3 IC50 (BxPC-3): 1e-10 M (inferred)

B11: M27-G1-M78 (bispecific antibody, human IgG1, lambda)
heavy: not shown
light: B3 light with W92T, N95D
[7]
  pIGF1R % Inhibition (BxPC-3): 87%
  pIGF1R IC50 (BxPC-3): 1.4e-09 M (inferred)
[8]
  pErbB3 % Inhibition (BxPC-3): 107%
  pErbB3 IC50 (BxPC-3): 1.2e-10 M (inferred)

B12: M27-G1-M57 (bispecific antibody, human IgG1, lambda)
heavy: not shown
light: B3 light with W92T, N95D
[7]
  pIGF1R % Inhibition (BxPC-3): 83%
  pIGF1R IC50 (BxPC-3): 8.1e-09 M (inferred)
[8]
  pErbB3 % Inhibition (BxPC-3): 88%
  pErbB3 IC50 (BxPC-3): 3.1e-10 M (inferred)

B13: M27/M7-G1-M57 (bispecific antibody, human IgG1, lambda)
heavy: not shown
light: B3 light with W92T, Q96K, L108I
[7]
  pIGF1R % Inhibition (BxPC-3): 91%
  pIGF1R IC50 (BxPC-3): 7.5e-09 M (inferred)
[8]
  pErbB3 % Inhibition (BxPC-3): 179%
  pErbB3 IC50 (BxPC-3): 1.5e-10 M (inferred)

B14: M57-G1-M1.3 (bispecific antibody, human IgG1, kappa)
heavy: not shown
light: DIQLTQSPSSLSASLGDRVTITCRASQGISSYLAWYQQKPGKAPKLLIYARSTRQSGVPSRFSGSGSGTEFTLTISSLQPEDSATYYCQQYWTWPLTFGGGTKVEIKRTVAAPSVFIFPPSDEQLKSGTASVVCLLNNFYPREAKVQWKVDNALQSGNSQESVTEQDSKDSTYSLSSTLTLSKADYEKHKVYACEVTHQGLSSPVTKSFNRGEC
[7]
  pIGF1R % Inhibition (BxPC-3): 94%
  pIGF1R IC50 (BxPC-3): 4.1e-10 M (inferred)
[8]
  pErbB3 % Inhibition (BxPC-3): 99%
  pErbB3 IC50 (BxPC-3): 1.4e-10 M (inferred)

B15: M57-G1-C8 (bispecific antibody, human IgG1, kappa)
heavy: not shown
light: B14 light
[7]
  pIGF1R % Inhibition (BxPC-3): 93%
  pIGF1R IC50 (BxPC-3): 2.5e-10 M (inferred)
[8]
  pErbB3 % Inhibition (BxPC-3): 98%
  pErbB3 IC50 (BxPC-3): 6.5e-11 M (inferred)

B16: M78-G1-P6 (bispecific antibody, human IgG1, kappa)
heavy: not shown
light: B14 light with L4M, R51S, E70D, A84G, T93A, W94F
[7]
  pIGF1R % Inhibition (BxPC-3): 95%
  pIGF1R IC50 (BxPC-3): 4.2e-10 M (inferred)
[8]
  pErbB3 % Inhibition (BxPC-3): 100%
  pErbB3 IC50 (BxPC-3): 1.4e-10 M (inferred)

B17: M78-G1-M1.3 (bispecific antibody, human IgG1, kappa)
heavy: not shown
light: B14 light with L4M, R51S, E70D, A84G, T93A, W94F
[7]
  pIGF1R % Inhibition (BxPC-3): 97%
  pIGF1R IC50 (BxPC-3): 5e-10 M (inferred)
[8]
  pErbB3 % Inhibition (BxPC-3): 99%
  pErbB3 IC50 (BxPC-3): 1.4e-10 M (inferred)

B18: M57-G1-P6 (bispecific antibody, human IgG1, kappa)
heavy: not shown
light: B14 light
[7]
  pIGF1R % Inhibition (BxPC-3): 92%
  pIGF1R IC50 (BxPC-3): 2.5e-10 M (inferred)
[8]
  pErbB3 % Inhibition (BxPC-3): 98%
  pErbB3 IC50 (BxPC-3): 7.9e-11 M (inferred)

B19: P4-G1-P6 (bispecific antibody, human IgG1, kappa)
heavy: not shown
light: B14 light with L4M, R51K, R54L, E70D, W94F
[7]
  pIGF1R % Inhibition (BxPC-3): 91%
  pIGF1R IC50 (BxPC-3): 1.6e-10 M (inferred)
[8]
  pErbB3 % Inhibition (BxPC-3): 95%
  pErbB3 IC50 (BxPC-3): 3.9e-11 M (inferred)

B20: M78-G1-C8 (bispecific antibody, human IgG1, kappa)
heavy: not shown
light: B14 light with L4M, R51S, E70D, A84G, T93A, W94F
[7]
  pIGF1R % Inhibition (BxPC-3): 96%
  pIGF1R IC50 (BxPC-3): 6.8e-10 M (inferred)
[8]
  pErbB3 % Inhibition (BxPC-3): 98%
  pErbB3 IC50 (BxPC-3): 2.3e-10 M (inferred)

B21: P4-G1-M1.3 (bispecific antibody, human IgG1, kappa)
heavy: not shown
light: B14 light with L4M, R51K, R54L, E70D, W94F
[7]
  pIGF1R % Inhibition (BxPC-3): 92%
  pIGF1R IC50 (BxPC-3): 1.8e-10 M (inferred)
[8]
  pErbB3 % Inhibition (BxPC-3): 94%
  pErbB3 IC50 (BxPC-3): 5.5e-11 M (inferred)
[2]
  pAKT IC50 (BxPC-3, IGF1 40 ng/ml): 1.4e-10 M
  pAKT IC50 (BxPC-3, IGF1 400 ng/ml): 2.1e-10 M
  pIGF1R IC50 (BxPC-3, IGF1 40 ng/ml): 1.2e-10 M
  pIGF1R IC50 (BxPC-3, IGF1 400 ng/ml): 9.9e-11 M
[10]
  pAKT IC50 (BxPC-3, HRG 20 ng/ml): 3.97e-11 M
  pAKT IC50 (BxPC-3, HRG 200 ng/ml): 4.09e-11 M
  pErbB3 IC50 (BxPC-3, HRG 20 ng/ml): 3.12e-11 M
  pErbB3 IC50 (BxPC-3, HRG 200 ng/ml): 2.72e-11 M
[3]
  pIGF1R IC50 (BxPC-3): 1.1e-09 M (inferred)
[9]
  pErbB3 IC50 (BxPC-3): 5.3e-11 M (inferred)
[4]
  % IGF1R Downregulation (A549, 24 h): 72%
  % IGF1R Downregulation (BxPC-3, 24 h): 71%

Reference: US20130236459A1 (MERRIMACK PHARMACEUTICALS, published 2013)
